From US20170305994A1 (Novo Nordisk, published 2017) come the findings set out here.

Assay [1] addresses T1, DR3 (CRD1)-Fc (human).
T1 construct: Amino acids 25-71 of DR3 fused to the Fc domain of human IgG4; purified to exclude oligomers (mainly dimeric)
The assay can be described thus: SPR. The source says:
(§1) The extracellular moiety of DR3 is located at the aminoterminal portion of DR3 and is comprised of four TNF receptor cysteine-rich domains. Several fusion proteins were expressed and purified which contained parts of the extracellular domain of DR3 of increasing length fused to the Fc domain of a human IgG4. The DR3 proteins used for SPR analysis had been purified to exclude oligomerized material. These proteins were immobilized to a CM5 sensor chip using amine coupling chemistry. Binding of anti-DR3 antibodies termed 0070, 0072, 0073 and 0076, to the different DR3-Fc fusion proteins was tested by means of plasmon surface binding measurements on a Biacore T100 instrument (GE Healthcare). All of these antibodies inhibit binding of TL1A to DR3 in a FACS assay. These 4 antibodies bound to recombinant DR3 (CRD1)-Fc protein that contained only the aminoterminal CRD (SEQ ID NO:2) comprised of amino acids 25-71 of DR3.
The same analysis was also performed for some of the Fab fragments.

In assay [2] the target is T2, human DR3 (full length, on cells) (human, UniProt Q93038 25-417).
T2 sequence: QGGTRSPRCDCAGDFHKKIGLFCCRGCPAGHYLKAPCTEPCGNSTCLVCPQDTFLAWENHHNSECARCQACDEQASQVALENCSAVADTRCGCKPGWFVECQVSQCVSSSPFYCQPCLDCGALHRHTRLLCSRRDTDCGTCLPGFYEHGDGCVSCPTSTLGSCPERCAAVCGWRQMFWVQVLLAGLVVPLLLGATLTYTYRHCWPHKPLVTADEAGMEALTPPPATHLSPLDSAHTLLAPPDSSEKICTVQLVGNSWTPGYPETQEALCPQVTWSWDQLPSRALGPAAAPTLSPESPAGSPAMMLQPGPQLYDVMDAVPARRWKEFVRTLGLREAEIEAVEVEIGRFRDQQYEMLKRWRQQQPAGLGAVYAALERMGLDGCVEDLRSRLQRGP
In words: cell-based or functional assay.

The target of assay [3] is T2, human DR3 (full length, on cells). In words: cell-based or functional assay. The source holds these as a separate data set.
Assay [4] concerns the target T3, human DR3 with the death domain deleted (ΔM339-P417 of SEQ ID NO:1), expressed on CHOK1SV cells (human, UniProt Q93038 25-338).
T3 construct: also called truncated DR3; hDR3 expressing CHO cells
T3 sequence: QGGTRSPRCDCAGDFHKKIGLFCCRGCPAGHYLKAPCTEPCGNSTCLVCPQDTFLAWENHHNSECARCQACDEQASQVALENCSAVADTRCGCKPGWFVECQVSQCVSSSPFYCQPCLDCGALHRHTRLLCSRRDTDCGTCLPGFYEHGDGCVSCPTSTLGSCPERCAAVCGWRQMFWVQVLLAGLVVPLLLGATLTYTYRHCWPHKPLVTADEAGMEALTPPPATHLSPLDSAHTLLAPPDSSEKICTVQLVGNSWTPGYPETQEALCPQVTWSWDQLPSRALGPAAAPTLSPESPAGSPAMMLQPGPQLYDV
In words: flow cytometry competition: Fab vs TL1A on hDR3-expressing CHO cells. (Flow cytometry measures light scatter and fluorescence of single cells or particles in a stream.)

In assay [5] the target is T2, human DR3 (full length, on cells). In words: cell-based or functional assay. This is another data set of the same source.
Assay [6] concerns the target T4, marmoset DR3 (transiently expressed on HEK293 cells) (marmoset, UniProt U3ENN5 27-418).
T4 sequence: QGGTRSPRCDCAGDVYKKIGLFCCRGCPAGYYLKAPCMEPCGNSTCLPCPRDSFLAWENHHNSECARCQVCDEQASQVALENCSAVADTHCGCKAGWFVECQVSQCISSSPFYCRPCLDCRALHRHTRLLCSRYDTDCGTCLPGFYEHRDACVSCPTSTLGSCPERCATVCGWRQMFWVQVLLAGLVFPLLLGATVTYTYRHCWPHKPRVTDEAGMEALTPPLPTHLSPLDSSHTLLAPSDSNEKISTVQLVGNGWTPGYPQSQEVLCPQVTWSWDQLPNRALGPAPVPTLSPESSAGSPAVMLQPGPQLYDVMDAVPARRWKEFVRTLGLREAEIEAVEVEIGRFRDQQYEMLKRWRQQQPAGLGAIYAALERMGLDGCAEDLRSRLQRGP
In words: cell-based or functional assay.

The target in assay [7] is T5, cynomolgus DR3 (on HEK293 reporter cells) (cynomolgus, UniProt A0A2K5WJ09 98-464).
T5 sequence: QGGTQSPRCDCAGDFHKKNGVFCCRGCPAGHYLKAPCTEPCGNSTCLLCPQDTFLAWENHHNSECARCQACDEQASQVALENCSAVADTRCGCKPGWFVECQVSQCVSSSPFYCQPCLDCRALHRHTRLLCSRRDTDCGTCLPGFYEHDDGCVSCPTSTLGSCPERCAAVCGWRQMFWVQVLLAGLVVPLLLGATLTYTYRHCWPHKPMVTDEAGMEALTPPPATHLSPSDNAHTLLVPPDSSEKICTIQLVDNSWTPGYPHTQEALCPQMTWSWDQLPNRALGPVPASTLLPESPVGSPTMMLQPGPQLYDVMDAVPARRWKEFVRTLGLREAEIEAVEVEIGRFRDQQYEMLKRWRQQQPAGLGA
In words: cell-based or functional assay.

The target of assay [8] is T5, cynomolgus DR3 (on HEK293 reporter …). The assay can be described thus: cell-based or functional assay. This is another data set of the same source.
The target in assay [9] is T2, human DR3 (full length, on cells). The assay can be described thus: flow cytometry on IL-12/IL-18/TL1A activated CD4+ T cells, 1 µg/ml. The procedure: (§2) Buffy Coats were obtained from normal healthy volunteers from Copenhagen University Hospital. CD4+ T cells were isolated through magnetic bead separation. Cells were activated with 2 ng/ml IL-12, 50 ng/ml IL-18 and 100 ng/ml TL1A (Flag-HIS-TEV-TL1A-produced at Novo Nordisk A/S) and cultured for 5 days. On day 5 cells were stained with 10, 5, 1, 0.5, 0.1 or 0.0001 μg/ml of the anti-DR3 mAb clones 0072, 0073, or 0077, or with Fab fragment clones 0087, 0088 and 0091. A secondary PE conjugated goat-anti-mouse (H+L) was used for detection.
The greater observed MFI values of IgG treated compared with Fab treated cells was expected since the secondary (detecting) antibody (anti-IgG heavy and light chain) bound to both Fab and Fc parts of the full-length IgG antibody clones, but only to Fab parts of Fab clones (Table 9).

For assay [10], the target named is T1, DR3 (CRD1)-Fc. The assay can be described thus: SPR, Biacore T100, DR3-Fc fusion immobilised.
Source text: as §1
(In SPR one partner is held on a chip, and binding of the other changes the refractive index at the surface.)

Assay [11] has as its target T2, human DR3 (full length, on cells). In words: flow cytometry on IL-12/IL-18/TL1A activated CD4+ T cells, 1 µg/ml. The procedure:
as §2
as §2, with “Material and Methods: Buffy” for “Buffy”, “Copenhagen” for “Copenhagen University”, “0088 or” for “0088 and”, “detection. Samples were in duplicate. Staining intensity was evaluated by FACS.” for “detection.”
The source holds these as a separate data set.

The target is the same in assay [12]. The assay can be described thus: flow cytometry on CD3/CD28-stimulated human CD4+ T cells. The method, then: Human CD4-positive T cells were purified from Buffy coats using CD4 Rosettesep (Stem cell technologies) and Histopaque (Sigma). T cells were stimulated with CD3/CD28 Dynabeads (Invitrogen) at a 1:1 ratio for 4 days in T75 flask at 2 mio CD4 T cells/ml in RPMI supplemented with 10% fcs. Beads were removed using a magnet, and cells were washed twice before titrating in antibodies on 500.000 cells/staining. Binding saturation was measured after incubation with goat-anti-mouse phycoerythrin (Jackson ImmunoResearch) and cells were subsequently analysed by flow cytometry on a BD LSRII. All antibodies reached saturation at 3 μg/ml.

Assay [13] has the same target. In words: cell-based or functional assay. The source holds these as a separate data set.
The target is the same in assay [14]. The assay can be described thus: cell-based or functional assay. The source holds these as a separate data set.

Where two headings read alike, the source gives them in different places.

B1: 0152 (chimeric Fab of 50F191, human IgG4 constant domain, hinge Cys->Ser) (Fab, V domains shown)
VH: EVQLVESGGGLVEPGGSLKLSCAASGFTFSTYAMSWVRQSPEKRLEWVAEISSGDSYTYYPDIVTGRFTISRDDAKNTLFLEMSSLRSEDTAIYYCVRDQDYRYDGYYAMDHWGQGTSVTVSS
VL: DIVLTQSPASLAVSLGQRATISCRASESVEHYGTSLMQWYQQKPGQPPKLLIYAASNVESGVPARFSGRGSGPDFSLNIHPVEEDDIAMYFCQQSRRIPWTFGGGTKLEIKR
notes: IgG4-Ser, chimeric
The IC50 is the concentration that gives 50% inhibition. The low end stands for higher potency, the high end for lower potency. As for B1, the binding result in the assay with DR3 (CRD1)-Fc [1] was “binds”. Besides, in assay [2], the “IC50, TNFalpha inhibition, TL1A-activated CD4+ T cells, donor 1” value is 0.183 nM; the “IC50, TNFalpha inhibition, average (n 1)” value stood at 0.183 nM; the “max % inhibition of TNFalpha, donor 1” value stood at 73.5%. In assay [3], the half-inhibitory concentration (IC50) at 40 ng/ml TL1A, I5 reporter cells is 2.1 nM. In assay [4], this molecule gave a 50% inhibitory concentration (IC50) of 0.512 nM and a max percentage inhibition of 53%.

B2: 0123 (chimeric Fab of 27F44, human IgG4 constant domain, hinge Cys->Ser) (Fab, V domains shown)
VH: EVKLVESGGGLVKPGGSLKLSCSASGFAFSNYDMSWVRQTPEKRLEWVAAFSSDGYTFYPDSLKGRFTISRDNARNTLYLQMSSLGSEDTALYCCARHADYANYPVMDYWGQGTSVTVSS
VL: DIVLAQSPASLLVSLGQRATISCRASKSVSTSGYSYMHWYQQKPGQPPKLLIYLASNLESGVPARFSGSGSGTDFTLNIHPVEEEDAATYYCQHSRELPLTFGAGTMLELKR
notes: murine variable domains, human IgG4 constant domain (IgG4-Ser)
Regarding B2, the half-maximal inhibitory concentration (IC50) at 40 ng/ml TL1A, transient reporter HEK293 in [5] came out at 0.33 nM. Further, the “IC50 at 40 ng/ml TL1A, transient reporter HEK293” value in assay [6] came to 0.323 nM. The “IC50 at 40 ng/ml TL1A, transient reporter HEK293” value in [7] was 99 nM. In the assay with DR3 (CRD1)-Fc [1], the binding result is “binds”. The “IC50 at 40 ng/ml TL1A, Lyda20 reporter cells” value in [8] amounted to 236 nM. For the same molecule, in assay [2], the “IC50, TNFalpha inhibition, TL1A-activated CD4+ T cells, donor 1” value is 0.301 nM; the “IC50, TNFalpha inhibition, TL1A-activated CD4+ T cells, donor 2” value came to 0.32 nM; the “IC50, TNFalpha inhibition, average (n 22)” value came to 0.208 nM; the “max % inhibition of TNFalpha, donor 1” value turned out to be 83.5%. For the same molecule, the “max % inhibition of TNFalpha, donor 2” value in assay [2] is 75.9%. In [3], inhibition was half-maximal at 0.188 nM (IC50 at 40 ng/ml TL1A, I5 reporter cells). In assay [4], this molecule gave an IC50 of 0.443 nM and a max percentage inhibition of 80%.

B3: 0072 (murine mAb purified from hybridoma 27F44A2) (antibody, mouse IgG1, V domains shown)
VH: B2 VH
VL: B2 VL
notes: murine IgG1, kappa; also called 0084
B3 displayed an MFI in assay [9] of 1300 MFI. The binding result with DR3 (CRD1)-Fc [10] is on record as “binds”. The same molecule yielded an MFI in assay [11] of 1300 MFI. In assay [12], the “Median Fluorescent Intensity” value is 2650, the “Staining index (MFI Ab/MFI Isotype)” value worked out at 11.9 and the saturation concentration came out at 3 µg/mL. In assay [13], the “fold response, DR3 reporter, 40 ng/ml TL1A + 0.1 microg/ml” value worked out at 29.6 fold; the “fold response, DR3 reporter, 40 ng/ml TL1A + 1 microg/ml” value is 24.8 fold; the “fold response, DR3 reporter, 40 ng/ml TL1A + 10 microg/ml” value worked out at 23.3 fold; the “fold response, DR3 reporter, 40 ng/ml TL1A + 100 microg/ml” value came out at 13.6 fold. In [13], the “fold response, DR3 reporter, no TL1A, 0.1 microg/ml” value amounted to 20.6 fold; the “fold response, DR3 reporter, no TL1A, 1 microg/ml” value came out at 19.8 fold; the “fold response, DR3 reporter, no TL1A, 10 microg/ml” value worked out at 17.3 fold; the “fold response, DR3 reporter, no TL1A, 100 microg/ml” value worked out at 8.5 fold. In [14], the “fold response, DR3 reporter, 40 ng/ml TL1A + 0.000256 microg/ml” value was determined as 33.8 fold; the “fold response, DR3 reporter, 40 ng/ml TL1A + 0.00128 microg/ml” value amounted to 37.2 fold; the “fold response, DR3 reporter, 40 ng/ml TL1A + 0.0064 microg/ml” value amounted to 40.3 fold; the “fold response, DR3 reporter, 40 ng/ml TL1A + 0.032 microg/ml” value amounted to 41 fold. Moreover, in assay [14], the “fold response, DR3 reporter, 40 ng/ml TL1A + 0.08 microg/ml” value was 38.4 fold; the “fold response, DR3 reporter, 40 ng/ml TL1A + 4 microg/ml” value stood at 34 fold; the “fold response, DR3 reporter, 40 ng/ml TL1A + 20 microg/ml” value is 27.8 fold; the “fold response, DR3 reporter, 40 ng/ml TL1A + 100 microg/ml” value turned out to be 18.4 fold. For the same molecule, in assay [14], the “fold response, DR3 reporter, no TL1A, 0.000256 microg/ml” value was 1.1 fold; the “fold response, DR3 reporter, no TL1A, 0.00128 microg/ml” value worked out at 2.2 fold; the “fold response, DR3 reporter, no TL1A, 0.0064 microg/ml” value amounted to 9.3 fold; the “fold response, DR3 reporter, no TL1A, 0.032 microg/ml” value was found to be 18.6 fold. In assay [14], the “fold response, DR3 reporter, no TL1A, 0.08 microg/ml” value worked out at 25.1 fold; the “fold response, DR3 reporter, no TL1A, 4 microg/ml” value worked out at 21.1 fold; the “fold response, DR3 reporter, no TL1A, 20 microg/ml” value came to 16.3 fold; the “fold response, DR3 reporter, no TL1A, 100 microg/ml” value was found to be 9.2 fold.
